The target in the assay is Mycobacterium tuberculosis chorismate mutase variant V55D (Mycobacterium tuberculosis). Put plainly: crystal structure; sitting drop vapor diffusion, 20 °C; protein 44 mg/mL in 20 mM Bis Tris propane, pH 7.5, 150 mM NaCl; reservoir 0.2 M zinc acetate dihydrate, 10% w/v PEG 3000, 0.1 M sodium acetate, pH 4.5; space group P22(1)2(1); 2.1 Å.

A word on the stoichiometry N: it is a count of units in the complex or per binding partner. In turn, “Mycobacterium tuberculosis chorismate mutase variant V55D (enzyme)” yielded a stoichiometry N of 2.

These data come from article PMC9910054.
